Measured values reported in publication PMC8153730 (Science Advances, 2021).
Blank lines part the entries; values can stand above or below the binder they belong to.

Tests used:
[1] = target: recombinant His BRD4 (1-477aa) (UniProt O60885 1-477); assay: ELISA
[2] = target: His-Sumo BRD4 (1-477aa) wild type, not methylated (UniProt O60885 1-477); assay: ELISA

binding result [1]: binds
B1: recombinant glutathione S-transferase (GST) SETD6 (enzyme)
chain: MATQAKRPRVAGPVDGGDLDPVACFLSWCRRVGLELSPKVSERAGGRRTRGGARAALTSPPAQVAVSRQGTVAGYGMVARESVQAGELLFVVPRAALLSQHTCSIGGLLERERVALQSQSGWVPLLLALLHELQAPASRWRPYFALWPELGRLEHPMFWPEEERRCLLQGTGVPEAVEKDLANIRSEYQSIVLPFMEAHPDLFSLRVRSLELYHQLVALVMAYSFQEPLEEEEDEKEPNSPVMVPAADILNHLANHNANLEYSANCLRMVATQPIPKGHEIFNTYGQMANWQLIHMYGFVEPYPDNTDDTADIQMVTVREAALQGTKTEAERHLVYERWDFLCKLEMVGEEGAFVIGREEVLTEEELTTTLKVLCMPAEEFRELKDQDGGGDDKREEGSLTITNIPKLKASWRQLLQNSVLLTLQTYATDLKTDQGLLSNKEVYAKLSWREQQALQVRYGQKMILHQLLELTS

binding result [2]: binds
B2: His E2F1 (natural protein)
chain: not shown
